Measured values as given in IntAct's records for PubMed 28587924.

B1: Argininosuccinate synthase (Homo sapiens), P00966 (parent)
chain: MSSKGSVVLAYSGGLDTSCILVWLKEQGYDVIAYLANIGQKEDFEEARKKALKLGAKKVFIEDVSREFVEEFIWPAIQSSALYEDRYLLGTSLARPCIARKQVEIAQREGAKYVSHGATGKGNDQVRFELSCYSLAPQIKVIAPWRMPEFYNRFKGRNDLMEYAKQHGIPIPVTPKNPWSMDENLMHISYEAGILENPKNQAPPGLYTKTQDPAKAPNTPDILEIEFKKGVPVKVTNVKDGTTHQTSLELFMYLNEVAGKHGVGRIDIVENRFIGMKSRGIYETPAGTILYHAHLDIEAFTMDREVRKIKQGLGLKFAELVYTGFWHSPECEFVRHCIAKSQERVEGKVQVSVLKGQVYILGRESPLSLYNEELVSMNVQGDYEPTDATGFININSLRLKEYHRLQSKVTAK
partner: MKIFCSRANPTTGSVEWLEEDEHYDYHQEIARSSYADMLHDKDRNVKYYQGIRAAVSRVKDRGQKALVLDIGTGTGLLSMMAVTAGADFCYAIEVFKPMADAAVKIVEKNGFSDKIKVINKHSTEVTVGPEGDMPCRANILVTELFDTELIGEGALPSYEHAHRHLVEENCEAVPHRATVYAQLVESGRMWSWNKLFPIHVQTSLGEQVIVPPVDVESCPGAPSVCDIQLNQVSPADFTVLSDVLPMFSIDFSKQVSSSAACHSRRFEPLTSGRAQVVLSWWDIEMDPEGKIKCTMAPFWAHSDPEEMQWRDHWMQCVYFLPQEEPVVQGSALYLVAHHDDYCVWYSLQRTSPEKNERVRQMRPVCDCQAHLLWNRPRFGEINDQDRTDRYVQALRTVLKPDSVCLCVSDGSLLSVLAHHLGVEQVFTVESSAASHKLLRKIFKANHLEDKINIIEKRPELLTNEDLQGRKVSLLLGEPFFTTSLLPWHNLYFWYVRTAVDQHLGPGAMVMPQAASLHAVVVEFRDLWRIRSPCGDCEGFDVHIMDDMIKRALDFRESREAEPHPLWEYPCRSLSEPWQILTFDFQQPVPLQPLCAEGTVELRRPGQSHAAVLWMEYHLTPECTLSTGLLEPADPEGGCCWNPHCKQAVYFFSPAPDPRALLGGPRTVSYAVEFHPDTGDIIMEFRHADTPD

Tests used:
[1] = variants of: B1; settings: with anm7_human PRMT7, Q9NVM4
[2] = variants of: B1; settings: with anm7_human PRMT7, Q9NVM4; remark: listed apart in the source

effect of a mutation on the interaction [1] | effect of a mutation on the interaction [2] | Variant
decreasing interaction strength |  | I360A
disrupting interaction strength | decreasing interaction strength | R363L
disrupting interaction strength | decreasing interaction strength | D296G
